Measured values: paper PMC3989220
Where two headings read alike, the source gives them in different places.

What was measured:
GKRP (Rattus norvegicus) = GKRP (Rattus norvegicus) (UniProt Q07071); conditions: cited from earlier work
[1] = molecular target: Glucokinase (GK) cloned from rat hypothalamic tanycyte cultures, recombinant (rat) (UniProt P17712); test: enzyme inhibition kinetics (glucose-6-phosphate dehydrogenase-coupled GK activity assay, Segel plot); GK saturation curves with glucose in the presence of 0.1 and 0.2 µM purified GKRP; 200 mM Tris-HCl pH 7.5, 2 mM MgCl2, 1 mM DTT, 1 mM ATP, 0.5 mM NADP+, 37°C, 5 min; Ki from Segel's graph for an allosteric modulator of a cooperative enzyme
[2] = molecular target: Glucokinase (GK) cloned from rat hypothalamic tanycyte cultures, recombinant (rat) (UniProt P17712); test: as above; remark: listed apart in the source
[3] = molecular target: Glucokinase (GK) cloned from rat hypothalamic tanycyte cultures, recombinant (rat) (UniProt P17712)

Chain of UniProt Q07071 (Q07071 whole entry): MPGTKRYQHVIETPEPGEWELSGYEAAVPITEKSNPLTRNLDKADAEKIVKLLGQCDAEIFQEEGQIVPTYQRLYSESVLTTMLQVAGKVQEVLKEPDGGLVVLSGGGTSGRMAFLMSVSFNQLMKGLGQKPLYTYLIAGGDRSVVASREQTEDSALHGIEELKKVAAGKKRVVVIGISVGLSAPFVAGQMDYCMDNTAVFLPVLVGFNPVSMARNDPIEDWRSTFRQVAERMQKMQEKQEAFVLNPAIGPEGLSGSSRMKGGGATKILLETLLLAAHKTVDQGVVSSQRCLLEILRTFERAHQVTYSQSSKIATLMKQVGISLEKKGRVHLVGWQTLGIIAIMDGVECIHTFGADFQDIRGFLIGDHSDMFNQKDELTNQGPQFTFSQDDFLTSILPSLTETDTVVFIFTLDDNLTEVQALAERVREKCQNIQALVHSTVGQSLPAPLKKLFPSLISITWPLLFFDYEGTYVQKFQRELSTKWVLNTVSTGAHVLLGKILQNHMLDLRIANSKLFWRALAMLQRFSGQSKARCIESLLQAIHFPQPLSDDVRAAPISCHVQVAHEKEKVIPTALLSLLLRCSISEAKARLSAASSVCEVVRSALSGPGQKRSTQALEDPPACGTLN

| Substance | Ki (GKRP (Rattus norvegicus)) [µM] | Ki [1] [µM] | Ki [2] [µM] | GK activity (glucose-6-phosphate dehydrogenase-coupled assay) at 5 min with 10 mM glucose and 0.05-0.25 µM GKRP; IC50 by nonlinear extrapolation [3] [µM] |
| --- | --- | --- | --- | --- |
| Glucokinase (from UniProt P17712) | 1 |  |  |  |
| Glucokinase regulatory protein (GKRP) cloned from rat hypothalamic tanycyte cultures, recombinant (from UniProt Q07071 1-627) (natural protein) |  | 0.21 | 210 | 280 |
